Results from article PMC10544979.

Experiments:
[1] = target: human TLR4 (hTLR4) on HEK-Blue-hTLR4 reporter cells (human) (UniProt O00206)
[2] = target: mouse TLR4 (mTLR4) on HEK-Blue-mTLR4 reporter cells (mouse) (UniProt Q9QUK6); settings: for log (EC50) of NF-kB-driven SEAP secretion by HEK-Blue-mTLR4 reporter cells, 48 h, dose-response up to 2540 nM: scale: log
Chain of UniProt Q9QUK6 (Q9QUK6 26-835): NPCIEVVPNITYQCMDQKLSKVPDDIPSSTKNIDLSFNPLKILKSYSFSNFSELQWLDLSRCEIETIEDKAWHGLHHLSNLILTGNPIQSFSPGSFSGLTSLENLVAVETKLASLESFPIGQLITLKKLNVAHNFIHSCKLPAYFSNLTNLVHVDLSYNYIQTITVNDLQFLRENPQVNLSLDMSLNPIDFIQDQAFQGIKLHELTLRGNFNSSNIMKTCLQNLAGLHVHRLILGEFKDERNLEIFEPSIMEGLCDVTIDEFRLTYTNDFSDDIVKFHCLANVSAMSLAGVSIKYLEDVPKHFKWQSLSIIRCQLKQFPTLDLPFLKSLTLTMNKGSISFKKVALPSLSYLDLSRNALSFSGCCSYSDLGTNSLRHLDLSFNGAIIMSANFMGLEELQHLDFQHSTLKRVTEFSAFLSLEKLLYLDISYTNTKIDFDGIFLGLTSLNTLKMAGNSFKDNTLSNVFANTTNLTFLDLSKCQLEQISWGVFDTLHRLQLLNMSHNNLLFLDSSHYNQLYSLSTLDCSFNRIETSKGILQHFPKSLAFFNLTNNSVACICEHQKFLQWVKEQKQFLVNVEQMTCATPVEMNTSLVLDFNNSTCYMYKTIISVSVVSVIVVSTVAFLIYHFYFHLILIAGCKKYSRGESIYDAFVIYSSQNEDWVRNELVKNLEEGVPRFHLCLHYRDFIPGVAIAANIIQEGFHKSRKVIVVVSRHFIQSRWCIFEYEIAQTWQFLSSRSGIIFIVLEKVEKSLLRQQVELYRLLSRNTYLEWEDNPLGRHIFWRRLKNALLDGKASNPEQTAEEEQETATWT

Chain of UniProt O00206 (O00206 24-839): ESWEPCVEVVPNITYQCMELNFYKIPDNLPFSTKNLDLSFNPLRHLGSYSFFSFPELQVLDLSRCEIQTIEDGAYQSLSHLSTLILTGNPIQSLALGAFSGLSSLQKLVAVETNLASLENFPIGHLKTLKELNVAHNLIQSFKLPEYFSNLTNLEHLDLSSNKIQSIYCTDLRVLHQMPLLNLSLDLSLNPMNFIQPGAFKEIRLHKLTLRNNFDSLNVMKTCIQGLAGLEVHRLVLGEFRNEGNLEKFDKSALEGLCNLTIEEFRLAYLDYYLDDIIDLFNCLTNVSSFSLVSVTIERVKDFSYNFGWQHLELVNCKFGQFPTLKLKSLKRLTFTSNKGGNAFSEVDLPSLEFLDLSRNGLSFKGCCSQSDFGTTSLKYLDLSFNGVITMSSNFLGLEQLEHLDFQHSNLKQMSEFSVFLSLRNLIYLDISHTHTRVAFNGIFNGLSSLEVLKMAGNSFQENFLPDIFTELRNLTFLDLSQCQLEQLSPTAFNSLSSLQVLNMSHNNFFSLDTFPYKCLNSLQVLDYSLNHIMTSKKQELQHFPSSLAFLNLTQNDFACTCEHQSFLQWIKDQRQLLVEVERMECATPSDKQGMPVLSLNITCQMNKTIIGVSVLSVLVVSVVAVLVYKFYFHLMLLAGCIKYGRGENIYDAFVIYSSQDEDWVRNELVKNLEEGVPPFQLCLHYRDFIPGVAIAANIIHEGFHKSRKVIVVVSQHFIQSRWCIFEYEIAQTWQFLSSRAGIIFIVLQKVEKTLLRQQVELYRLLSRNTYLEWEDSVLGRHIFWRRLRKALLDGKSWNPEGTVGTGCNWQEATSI

| Substance | activation of HEK-Blue-hTLR4 reporter cells (SEAP), dose-response up to 2,540 nM, 48 h, LPS = 100% [1] | maximum activation of HEK-Blue-mTLR4 reporter cells (SEAP), dose-response up to 2540 nM, 48 h, LPS plateau = 100% [2] | log (EC50) of NF-kB-driven SEAP secretion by HEK-Blue-mTLR4 reporter cells, 48 h, dose-response up to 2540 nM [2] |
| --- | --- | --- | --- |
| Fissurella latimarginata hemocyanin (FLH) (natural protein) | 25 % of LPS | 80 % of LPS | 0.1 |
| recombinant surface immunogenic protein (rSIP) from Streptococcus agalactiae (natural protein) | 90 % of LPS | 80 % of LPS | -1 |
